From publication PMC11784016 come the findings set out here.

Common to all, as to experiment: co-IP; 293T cells co-transfected; 400 ug of cell lysate on anti-HA magnetic beads with RNaseA (50 ug/mL), 2 h at 4 C; co-IP buffer 50 mM Tris-Cl pH 7.4, 1% Nonidet-P40, 10% glycerol, 150 mM NaCl; immunoblot with anti-HA and anti-V5 or anti-Flag; band intensities normalised to the immunoprecipitated protein, full-length protein set to 100%
Experiment [1] concerns the target APOBEC3G with C-terminal triple HA tag (pcDNA3.1-APOBEC3G-HA) (human) (UniProt Q9HC16).
The target in experiment [2] is APOBEC3G N-terminal domain, HA-tagged (pcDNA3.1 A3G NTD-HA) (human).
For experiment [3], the target named is APOBEC3F-HA (pcDNA3.1 A3F-HA) (human) (UniProt Q8IUX4).
Experiment [4] deals with APOBEC3F N-terminal domain, HA-tagged (pcDNA3.1 A3F NTD-HA) (human).
APOBEC3F N-terminal domain, HA-tagged (pcDNA3.1 A3F NTD-HA) (human), sequence (Q8IUX4 whole entry, the tested form may be a part): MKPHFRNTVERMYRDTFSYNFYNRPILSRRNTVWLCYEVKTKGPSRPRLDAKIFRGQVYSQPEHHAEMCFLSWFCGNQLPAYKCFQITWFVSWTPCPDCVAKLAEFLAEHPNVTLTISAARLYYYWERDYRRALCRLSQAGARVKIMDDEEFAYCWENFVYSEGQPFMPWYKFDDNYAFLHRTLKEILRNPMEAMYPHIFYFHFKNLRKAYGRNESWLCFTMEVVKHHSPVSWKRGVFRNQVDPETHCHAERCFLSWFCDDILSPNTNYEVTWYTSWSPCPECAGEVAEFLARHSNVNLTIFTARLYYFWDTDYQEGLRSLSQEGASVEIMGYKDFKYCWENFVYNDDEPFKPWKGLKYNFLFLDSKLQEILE

APOBEC3G N-terminal domain, HA-tagged (pcDNA3.1 A3G NTD-HA) (human), sequence (Q9HC16 whole entry, the tested form may be a part): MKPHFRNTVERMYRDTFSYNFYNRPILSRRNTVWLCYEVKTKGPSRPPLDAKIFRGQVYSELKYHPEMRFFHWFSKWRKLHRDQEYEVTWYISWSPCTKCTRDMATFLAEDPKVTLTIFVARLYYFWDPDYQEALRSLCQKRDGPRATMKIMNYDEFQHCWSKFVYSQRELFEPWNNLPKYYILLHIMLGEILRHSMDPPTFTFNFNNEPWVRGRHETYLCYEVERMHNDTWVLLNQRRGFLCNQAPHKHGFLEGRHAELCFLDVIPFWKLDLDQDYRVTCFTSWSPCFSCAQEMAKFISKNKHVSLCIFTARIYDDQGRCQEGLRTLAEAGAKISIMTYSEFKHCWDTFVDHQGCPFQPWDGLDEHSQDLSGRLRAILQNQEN

In experiment [1], “APOBEC3F C-terminal domain, Flag-tagged (pcDNA3.1 A3F CTD-Flag) (domain or fragment)” showed a fold less immunoprecipitated than full-length A3F and A3F NTD of 17 fold.

Consider “APOBEC3F N-terminal domain, Flag-tagged (pcDNA3.1 A3F NTD-Flag) (domain or fragment)”, for which the fold more immunoprecipitated than full-length A3F in experiment [2] was determined as 7 fold.

Substance “APOBEC3G C-terminal domain, Flag-tagged (A3G CTD-Flag) (domain or fragment)” yielded a fold by which full-length A3G in the co-IP exceeded this construct in experiment [3] of 42 fold.

Take “APOBEC3G N-terminal domain, Flag-tagged (pcDNA3.1 A3G NTD-Flag) (domain or fragment)”: the fold by which full-length A3G in the co-IP exceeded this construct in experiment [3] was found to be 6 fold. The fold less in the co-IP than the full-length protein in experiment [4] is 1000 fold.
